Experimental data taken from PMC9579167, “Structure of the proteolytic enzyme PAPP-A with the endogenous inhibitor stanniocalcin-2 reveals its inhibitory mechanism” (Nature Communications, 2022).

T1: 415-residue monomeric C-terminal PAPP-A fragment, PA(T1213-G1627) (human, UniProt Q13219 1213-1627)
T1 construct: PAPP-A, human, residues T1213-G1627 (SCR1-5 and the C domain with LNR3); also called PAPP-A(T1213-G1627); C-terminal fragment of PAPP-A truncated at SCR1; source: 293T cells, transient transfection
T1 sequence (looked up): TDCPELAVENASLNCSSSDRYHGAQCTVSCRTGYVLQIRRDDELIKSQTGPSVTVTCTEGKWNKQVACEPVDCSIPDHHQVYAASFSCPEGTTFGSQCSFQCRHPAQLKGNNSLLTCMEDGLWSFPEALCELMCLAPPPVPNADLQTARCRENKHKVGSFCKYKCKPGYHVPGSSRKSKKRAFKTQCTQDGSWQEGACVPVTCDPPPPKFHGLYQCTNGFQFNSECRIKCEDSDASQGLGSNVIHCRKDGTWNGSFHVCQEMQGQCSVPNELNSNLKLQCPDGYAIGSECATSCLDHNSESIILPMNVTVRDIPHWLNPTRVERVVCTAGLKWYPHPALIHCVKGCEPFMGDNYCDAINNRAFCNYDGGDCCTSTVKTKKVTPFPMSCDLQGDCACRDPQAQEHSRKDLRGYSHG


How the values were obtained:
[1] = molecular target: the molecule itself; assay: cryo-EM structure; single-particle cryo-EM of the purified 2:2 PAPP-A(E563Q)·STC2 complex from co-cultured 293T lines; 0.6 mg/mL; 20 mM HEPES, 100 mM NaCl, 1 mM CaCl2, pH 7.4
[2] = molecular target: T1, 415-residue monomeric C-terminal PAPP-A …; assay: SPR; Biacore 3000, 25 °C; PA_T1213-G1627 amine-coupled to CM5 (7000 RU); IGFBP-4 injected 5 min at 10 µl/min; 10 mM HEPES pH 7.5, 150 mM NaCl, 2 mM CaCl2, 0.05% Tween-20; also with 10 mM EDTA; conditions: both partners purified

| binding result [2] | Binder | binding result [1] |
| --- | --- | --- |
| – | active site-inactivated human PAPP-A (E563Q) (enzyme, UniProt Q13219 82-1627, looked up, N-glycans at N390, N402, N429, N480, N601, N725, N825, N1323, numbers count on UniProt Q13219; also called pregnancy-associated plasma protein-A; pappalysin-1) EARGATEEPSPPSRALYFSGRGEQLRLRADLELPRDAFTLQVWLRAEGGQRSPAVITGLYDKCSYISRDRGWVVGIHTISDQDNKDPRYFFSLKTDRARQVTTINAHRSYLPGQWVYLAATYDGQFMKLYVNGAQVATSGEQVGGIFSPLTQKCKVLMLGGSALNHNYRGYIEHFSLWKVARTQREILSDMETHGAHTALPQLLLQENWDNVKHAWSPMKDGSSPKVEFSNAHGFLLDTSLEPPLCGQTLCDNTEVIASYNQLSSFRQPKVVRYRVVNLYEDDHKNPTVTREQVDFQHHQLAEAFKQYNISWELDVLEVSNSSLRRRLILANCDISKIGDENCDPECNHTLTGHDGGDCRHLRHPAFVKKQHNGVCDMDCNYERFNFDGGECCDPEITNVTQTCFDPDSPHRAYLDVNELKNILKLDGSTHLNIFFAKSSEEELAGVATWPWDKEALMHLGGIVLNPSFYGMPGHTHTMIHQIGHSLGLYHVFRGISEIQSCSDPCMETEPSFETGDLCNDTNPAPKHKSCGDPGPGNDTCGFHSFFNTPYNNFMSYADDDCTDSFTPNQVARMHCYLDLVYQGWQPSRKPAPVALAPQVLGHTTDSVTLEWFPPIDGHFFERELGSACHLCLEGRILVQYASNASSPMPCSPSGHWSPREAEGHPDVEQPCKSSVRTWSPNSAVNPHTVPPACPEPQGCYLELEFLYPLVPESLTIWVTFVSTDWDSSGAVNDIKLLAVSGKNISLGPQNVFCDVPLTIRLWDVGEEVYGIQIYTLDEHLEIDAAMLTSTADTPLCLQCKPLKYKVVRDPPLQMDVASILHLNRKFVDMDLNLGSVYQYWVITISGTEESEPSPAVTYIHGSGYCGDGIIQKDQGEQCDDMNKINGDGCSLFCRQEVSFNCIDEPSRCYFHDGDGVCEEFEQKTSIKDCGVYTPQGFLDQWASNASVSHQDQQCPGWVIIGQPAASQVCRTKVIDLSEGISQHAWYPCTISYPYSQLAQTTFWLRAYFSQPMVAAAVIVHLVTDGTYYGDQKQETISVQLLDTKDQSHDLGLHVLSCRNNPLIIPVVHDLSQPFYHSQAVRVSFSSPLVAISGVALRSFDNFDPVTLSSCQRGETYSPAEQSCVHFACEKTDCPELAVENASLNCSSSDRYHGAQCTVSCRTGYVLQIRRDDELIKSQTGPSVTVTCTEGKWNKQVACEPVDCSIPDHHQVYAASFSCPEGTTFGSQCSFQCRHPAQLKGNNSLLTCMEDGLWSFPEALCELMCLAPPPVPNADLQTARCRENKHKVGSFCKYKCKPGYHVPGSSRKSKKRAFKTQCTQDGSWQEGACVPVTCDPPPPKFHGLYQCTNGFQFNSECRIKCEDSDASQGLGSNVIHCRKDGTWNGSFHVCQEMQGQCSVPNELNSNLKLQCPDGYAIGSECATSCLDHNSESIILPMNVTVRDIPHWLNPTRVERVVCTAGLKWYPHPALIHCVKGCEPFMGDNYCDAINNRAFCNYDGGDCCTSTVKTKKVTPFPMSCDLQGDCACRDPQAQEHSRKDLRGYSHG | binds |
| binds | human IGFBP-4 (natural protein, UniProt P22692 22-258, looked up, also called pBP4mH; source: 293T cells, transient transfection) DEAIHCPPCSEEKLARCRPPVGCEELVREPGCGCCATCALGLGMPCGVYTPRCGSGLRCYPPRGVEKPLHTLMHGQGVCMELAEIEAIQESLQPSDKDEGDHPNNSFSPCSAHDRRCLQKHFAKIRDRSTSGGKMKVNGAPREDARPVPQGSCQSELHRALERLAASQSRTHEDLYIIPIPNCDRNGNFHPKQCHPALDGQRGKCWCVDRKTGVKLPGGLEPKGELDCHQLADSFRE | – |
